Measured values as given in paper PMC4722452.
pKd: −log10 of the molar value.

Columns and labels:
[1] = biological target: Sos^CatW729E (UniProt Q07889); assay: other fluorescence titration; quenching of the intrinsic Trp fluorescence of Sos (10 μM) on adding Ras (1-50 μM) in Hepes buffer; excitation 295 nm, emission 336 nm; single-site quadratic fit; overall apparent (macroscopic) Kd
[2] = biological target: Sos^Cat (Son of Sevenless, residues 563-1049) (UniProt Q07889); assay: as above
[3] = biological target: Sos^Cat (Son of Sevenless, residues 563-1049) (UniProt Q07889); assay: NMR titration; 1H,13C HMQC of [13C-methyl-Met,Ile]Sos^Cat or Sos^CatW729E (60 μM) with unlabelled Ras added at Ras:Sos 0.5:1 to 4:1; 298 K; Met methyl reporter signals M726 (allosteric), M824 (catalytic), M714 (between)

pKd [1]	pKd [2]	apparent microscopic Kd, allosteric site (from the M726 signal shift) [3] [µM]	Substance
4.17	–	–	H-Ras·GDP (from UniProt P01112 1-166) (domain or fragment)
4.55	–	–	H-Ras·GTPγS (from UniProt P01112 1-166) (domain or fragment)
–	4.51	–	K-RasG12V·GTPγS (from UniProt P01116 1-166) (domain or fragment)
–	5.00	2	K-Ras·GTPγS (from UniProt P01116 1-166) (domain or fragment)
